Laboratory results reported in patent US20120316113A1, “FGF BASED FIBRIN BINDING PEPTIDES” (Baxter Healthcare S.A., priority 2011, published 2012).
Entries after “also recorded” stand apart in the source; their conditions may differ. Ends that are not written are not given here.

Columns and labels:
fibrinogen [1] = biological target: T1, fibrinogen (Homo sapiens, UniProt P02671+P02675+P02679); experiment: Surface plasmon resonance (SPR) binding to fibrinogen coupled to gold sensor chip; conditions: fibrinogen on sensor chip; fitted association curves
T1 sequence (P02671 20-629 limits assumed): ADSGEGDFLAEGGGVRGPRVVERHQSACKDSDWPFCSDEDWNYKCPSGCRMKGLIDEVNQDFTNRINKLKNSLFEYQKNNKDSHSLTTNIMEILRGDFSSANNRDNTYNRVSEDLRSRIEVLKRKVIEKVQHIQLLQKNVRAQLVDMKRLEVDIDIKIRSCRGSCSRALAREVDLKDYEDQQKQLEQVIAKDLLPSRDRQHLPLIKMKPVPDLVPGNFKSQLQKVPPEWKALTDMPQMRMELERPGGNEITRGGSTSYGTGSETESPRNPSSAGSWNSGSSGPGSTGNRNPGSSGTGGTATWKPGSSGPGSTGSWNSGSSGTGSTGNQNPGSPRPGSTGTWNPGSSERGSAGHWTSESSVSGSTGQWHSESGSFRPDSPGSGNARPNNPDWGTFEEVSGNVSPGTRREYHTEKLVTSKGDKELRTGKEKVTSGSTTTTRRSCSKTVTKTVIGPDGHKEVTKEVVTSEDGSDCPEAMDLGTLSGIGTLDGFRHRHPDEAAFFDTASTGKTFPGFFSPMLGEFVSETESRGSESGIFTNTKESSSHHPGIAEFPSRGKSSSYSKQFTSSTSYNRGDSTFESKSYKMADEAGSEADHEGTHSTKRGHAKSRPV
T1 sequence (P02675 31-491): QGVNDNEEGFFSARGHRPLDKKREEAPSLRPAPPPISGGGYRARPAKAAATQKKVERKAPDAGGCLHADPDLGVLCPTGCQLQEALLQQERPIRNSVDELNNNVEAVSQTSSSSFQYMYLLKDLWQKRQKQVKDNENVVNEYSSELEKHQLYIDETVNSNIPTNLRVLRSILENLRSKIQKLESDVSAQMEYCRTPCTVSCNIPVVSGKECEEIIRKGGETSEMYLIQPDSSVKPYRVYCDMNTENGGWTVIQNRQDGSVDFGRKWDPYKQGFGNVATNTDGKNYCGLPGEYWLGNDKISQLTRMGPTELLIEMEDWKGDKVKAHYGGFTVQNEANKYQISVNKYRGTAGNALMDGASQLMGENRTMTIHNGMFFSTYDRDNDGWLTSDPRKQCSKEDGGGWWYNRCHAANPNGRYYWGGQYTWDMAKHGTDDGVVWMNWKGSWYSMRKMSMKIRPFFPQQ
T1 sequence (P02679 27-433 limits assumed): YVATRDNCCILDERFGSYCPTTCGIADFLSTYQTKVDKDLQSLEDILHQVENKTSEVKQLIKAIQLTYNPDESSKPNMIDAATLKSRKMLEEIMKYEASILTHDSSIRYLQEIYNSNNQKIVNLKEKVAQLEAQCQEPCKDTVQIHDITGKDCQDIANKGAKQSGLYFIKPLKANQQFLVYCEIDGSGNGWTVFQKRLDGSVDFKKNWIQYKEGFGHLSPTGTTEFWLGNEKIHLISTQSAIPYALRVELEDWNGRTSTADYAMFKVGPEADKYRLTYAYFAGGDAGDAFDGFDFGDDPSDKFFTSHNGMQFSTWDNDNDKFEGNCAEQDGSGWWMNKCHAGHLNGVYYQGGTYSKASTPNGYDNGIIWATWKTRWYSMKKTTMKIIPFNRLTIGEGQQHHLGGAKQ
Description: (§1) A polystyrene 96-well plate (Nunc® Maxisorp EUSA-plates) was coated with 1 mg/ml fibrinogen (Tisseel®, Baxter AG, Vienna) overnight at 4° C. and then blocked with blocking solution (PBS+1% BSA) for 2 hours at room temperature CRT). After washing three times with PBS, purified peptides were added in various dilutions to the plate and incubated for 1 hour at RT. After the three times washing with PBS, a monoclonal anti-His6-peroxidase antibody (Sigma-Aldrich, Vienna), diluted in PBS+0.1% Tween (Sigma-Aldrich, Vienna) was added and incubated for 1 hour at RT. Finally, the plate was washed three times with PBS again and wells were incubated with o-phenylenediaminehydrochlorid substrate. Absorbance was measured at 492 nm and 620 nm. For fibrin binding analysis, the plate was first coated with fibrinogen overnight at 4° C. and then incubated with 10 I.U./ml thrombin (Tisseel, Baxter AG, Vienna) for 30 minutes at 37° C. The following procedure was the same as described above. For the surface plasmon resonance (SPR) method fibrinogen was coupled to a gold sensor chip (10% COOH—(PEG)6-C11—SH, 90% OH(PEG)3-C11—SH; Reichert Analytical, NY, USA) by amine chemistry using EDC (1-ethyl-3-[3-dimethylaminopropyl]carbodiimide hydrochloride) and NHS (N-hydroxysuccinimide) (Pierce, Ill., USA). Uncoupled sites on the gold sensor chip were blocked with 1 M ethanolamine pH 8.5 (Sigma-Aldrich, MO, USA). The purified recombinant proteins and peptides were passed over the chip's surface at a flow rate of 0.4 ml/min to 0.8 ml/min and allowed to interact. The signals were detected and recorded at the Reichert SR7000 Surface Plasmon Resonance Analytical Instrument (Reichert Analytical, NY, USA). After each measurement the sensor chip surface was regenerated by a pulse with 100 mM phosphoric acid (Mallinckrodt Chemicals, NJ, USA) after each application of the samples. Association and dissociation signals were fitted to one association curve using a prism software calculation program.

fibrinogen [2] = biological target: T1, fibrinogen; experiment: Fibrinogen binding assay by ELISA; conditions: plate coated with 1 mg/ml fibrinogen, various concentrations, anti-His6-peroxidase detection
Description: as §1
Purified, proteins and peptides in different concentrations were used for testing the binding affinity to fibrinogen and fibrin (FIG. 5).

[3] = tested on: mouse myoblast cell line (C2C12); experiment: Biological activity: viability (MTT) assay of mouse myoblast C2C12 cells; type: cell-based
Description: A moose myoblast cell line (C2C12; ECACC (Sigma-Aldrich, Vienna)) was grown in Dulbecco's Modified Eagle Medium (DMEM) with 10% fetal calf serum (FCS). At 50-60% confluence cells were trypsinized and transferred to a 24-well plate (1×10^4/well).
Following a 48-hour-culture period at 37° C., cells were washed with DMEM only and then covered with medium (DMEM+1% FCS) containing various concentrations of hFGF-2 or hFGF-2 peptides. After 48 hours number of viable cells was determined by adding 3-(4,5-dimethylthiazol-2-yl)-2,5-diphenyltetrazolium bromide (MTT, Sigma-Aldrich, Vienna) as previously described {M05}.

[4] = 146 amino acid variant; cited from earlier work

Substance	binding signal (SPR) (fibrinogen [1])	binding affinity to fibrinogen (fibrinogen [2])	activity retained relative to the full length protein ([3]; relative to full length hFGF-2)	proliferative activity / cell growth effect ([3]; 48 hours, DMEM+1% FCS, MTT)	concentration dependence of biological activity ([3]; various concentrations)	isoelectric point [4]
EERGVVSIKGVCANRYLAMKEDGRLLASKCVTDECFFFERLESNNYNTYRSR (EERGVVSIKGVCANRYLAMKEDGRLLASKCVTDECFFFERLESNNYNTYRSR; not fully specified (C-terminus); cysteine pairing not given here) [pep1, recombinant truncated hFGF-2 peptide (68 aa) with C-terminal 6x HIS-tag, expressed as GST fusion in E. coli and cleaved]	weak and short binding signals	high affinity	–	–	–	–
GVCANRYLAMKEDGRLLASKCVTDECFFFERLESNNYNTYRSR (GVCANRYLAMKEDGRLLASKCVTDECFFFERLESNNYNTYRSR; not fully specified (C-terminus); cysteine pairing not given here) [pep2, recombinant truncated hFGF-2 peptide (48 aa) with C-terminal 6x HIS-tag, ~5.2 kD]	weak and short binding signals	high affinity	approximately 50%	–	–	–
Human Fibroblast growth factor-2 [hFGF-2, reference compound]	–	high affinity	–	highest proliferative activity; also recorded: highest cell growth effect	concentration dependent biological activity	9.6
